Substrate in this data set: Nc1ncnc2c1ncn2[C@@H]1O[C@H](COP(=O)(O)OP(=O)(O)O)[C@@H](O)[C@H]1O
Briefly: purified protein. The settings on record: co-substrate D-glucose varied, Mg2+ (constant free Mg2+), 25 mM Hepes pH 7.8, 40 °C, ordered Bi-Bi, first substrate. It is filed as biochemical, Thermococcus litoralis.

As a reminder, the Km is the concentration of substrate that gives half-maximal velocity.

B1: TlGK (ADP-dependent glucokinase from Thermococcus litoralis) (Thermococcus litoralis DSM 5473) (protein)
chain: MKESLKDRIRLWKRLYVNAFENALNAIPNVKGVLLAYNTNIDAIKYLDKDDLEKRVTEIGKEKVFEIIENPPEKISSIEELLGGILRSIKLGKAMEWFVESEEVRRYLREWGWDELRIGGQAGIMANLLGGVYRIPTIVHVPQNPKLQAELFVDGPIYVPVFEGNKLKLVHPKDAIAEEEELIHYIYEFPRGFQVFDVQAPRENRFIANADDYNARVYMRREFREGFEEITRNVELAIISGLQVLKEYYPDGTTYRDVLDRVESHLNILNRYNVKSHFEFAYTANRRVREALVELLPKFTSVGLNEVELASIMEIIGDEELAKEVLEGHIFSVIDAMNVLMDETGIERIHFHTYGYYLALTQYRGEEVRDALLFASLAAAAKAMKGNLERIEQIRDALSVPTNERAIVLEEELEKEFTEFENGLIDMVDRQLAFVPTKIVASPKSTVGIGDTISSSAFVSEFGMRKR
notes: recombinant, purified from LB culture as in Merino et al. (heat shock, ammonium sulfate, two chromatographic steps); two-domain enzyme
Take B1: the Km is listed as 8.6 µM.

Values taken from publication PMC3688580, “Crystal Structure, SAXS and Kinetic Mechanism of Hyperthermophilic ADP-Dependent Glucokinase from Thermococcus litoralis Reveal a Conserved Mechanism for Catalysis” (PLoS ONE, 2013).
